Where two headings read alike, the source gives them in different places.
Key:
[1] = target: HIV-1 reverse transcriptase (heterodimer) (HIV-1) (UniProt P04585+P04585); settings: 100% incorporation with Mg2+; 37 C; 50% inhibition at Mn2+:Mg2+ ratio 7e-4
[2] = target: T1, Ty1 VLP-associated reverse transcriptase (Saccharomyces cerevisiae Ty1 retrotransposon) (UniProt Q07163); settings: 100% incorporation with Mg2+; 22 C; 50% inhibition at Mn2+:Mg2+ ratio 8e-3
T1 sequence: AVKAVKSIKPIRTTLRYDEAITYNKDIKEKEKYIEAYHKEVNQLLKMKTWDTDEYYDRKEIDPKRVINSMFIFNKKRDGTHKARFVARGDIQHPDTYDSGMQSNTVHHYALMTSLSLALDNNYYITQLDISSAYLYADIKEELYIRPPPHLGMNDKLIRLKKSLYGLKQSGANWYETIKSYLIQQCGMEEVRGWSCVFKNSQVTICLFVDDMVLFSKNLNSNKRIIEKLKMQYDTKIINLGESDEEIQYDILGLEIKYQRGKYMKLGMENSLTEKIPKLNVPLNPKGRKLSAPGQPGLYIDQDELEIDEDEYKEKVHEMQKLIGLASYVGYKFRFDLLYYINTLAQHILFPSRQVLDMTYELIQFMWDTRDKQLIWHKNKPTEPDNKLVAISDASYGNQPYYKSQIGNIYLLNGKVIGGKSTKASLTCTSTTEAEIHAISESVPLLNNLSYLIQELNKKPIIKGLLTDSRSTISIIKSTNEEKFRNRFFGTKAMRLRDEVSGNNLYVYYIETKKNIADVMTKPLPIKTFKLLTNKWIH

[3] = target: T2, Ty1 reverse transcriptase D211N D211N (Saccharomyces cerevisiae Ty1 retrotransposon) (UniProt Q07163); settings: 22 C, 20 mM KCl, pH 7.8
T2 sequence: T1 sequence

[4] = target: T3, Ty1 reverse transcriptase (wild-type) (Saccharomyces cerevisiae Ty1 retrotransposon) (UniProt Q07163); settings: 22 C, 20 mM KCl, pH 7.8
T3 sequence: T1 sequence

## oligo(dG)12-18/poly(rC) primer-template
[1]
  activity (pmol dGTP/ug RT per 60 min): 205
[2]
  activity (pmol dGTP/ul VLP per 60 min): 5
[3]; kcat with Mg2+, K0.5 Mg2+ 6.3 mM
  activity: 1.6 h⁻¹
[3]; kcat with Mn2+, K0.5 Mn2+ 0.02 mM
  activity: 0.57 h⁻¹
[4]; kcat with Mg2+, K0.5 Mg2+ 0.13 mM
  activity: 1.61 h⁻¹
[4]; kcat with Mn2+, K0.5 Mn2+ 19.9 mM
  activity: 0.56 h⁻¹

Source: US7601489
